In paper PMC3132758:

Columns and labels:
[1] = molecular target: CdvC from Metallosphaera sedula (Vps4-like AAA ATPase) (Metallosphaera sedula); assay: SEC; CdvC alone at >75 µM (180 µM) on Superose 6; single high molecular weight peak
[2] = molecular target: CdvB from Metallosphaera sedula (ESCRT-III-like), full length (Metallosphaera sedula); assay: SEC; CdvB and CdvC mixed, 20 µM each, on Superose 6; fractions analysed by SDS-PAGE; void volume peak holds both

Row | stoichiometry N [1] | stoichiometry N [2] | Substance
1 | 12 | – | CdvC from Metallosphaera sedula (Vps4-like AAA ATPase) (enzyme)
2 | – | 1 | CdvC from Metallosphaera sedula (Vps4-like AAA ATPase)
